Measurements as given in the RNAGym collection of RNA variant scans (doi:10.1073/pnas.2313332121).

B1: TPR t1 (parent)
chain: GACCAAUCUGCCCUCAGAGCUCGAGAACAUCUUCGGAUGCAGAGGAGGCAGGCUUCGGUGGCGCGAUAGCGCCAACGUCCUCAACCUCCAAUGCAUCCCACCACAUGAUGAUGCCUGAAGAGCCUUGGUUUUUUG

Variants of: B1
Assay: polymerase ribozyme fitness, log enrichment relative to wild type (log ratio); higher = more active; in vitro selection for triplet polymerase activity
Method in brief: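 A single round of triplicate in vitro selection, including frozen incubation at −7 °C, was applied to PCR-built, transcribed mutant libraries of each subunit of a heterodimeric triplet polymerase ribozyme. Illumina sequencing of input and output libraries retained genotypes with ≥10 input reads and ≥1 read per output. Fitness is the base-2 logarithm of genotype enrichment divided by wild-type enrichment, from inverse-variance-weighted replicate averages.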

Variant | polymerase ribozyme fitness (log ratio)
C40U U92G C98U G113U G117U | -6.95
C40A G77A A84U C94U U106A | -2.81
A41C C101A G120C | -1.45
C40U C73U A75C | -0.514
G39U G63C A91C G113U A121C | -3.83
C40A C104U G110A C124U | -2.31
C40A G47A | -3.03
A41U G60U | -1.91
A41U C99U C124U | -5.19
C40G C124U | 0.744
A41C G51A C114G | -6.23
C40U C53U A75G C82U | -0.592
C40U C123U | 0.0584
C40U C123A | 0.43
A41U G52C C124U U131C G135U | -1.81
C40G G48A | -1.87
C40G G48U | -1.55
A41C A46C C114U U131C | -3.66
C40U G61U | -0.267
C40A U78A C79U U109A | -6.14
G39U C70G | -4.12
C40G C80U G122U | -3.37
C40U G52C G117C | -6.09
A41G G117U | -2.99

Variant | polymerase ribozyme fitness (log ratio)
C40G U55G G71A C85A | -3.12
G39U C62U G117U | -3.18
G39U C101G | -3.29
A41C C49A C72U | -1.51
C40G A100C | -2.29
C40A G48U | -1.61
A41U G61A C102A U133G | -3.96
A41U G113A | -1.81
C40G C94G A121U | -0.125
A41C G44U U87C | -1.33
A41C G63C A105G | -5.05
A41G G47U G120A | -3.73
G42A A50U | -4.57
A41U G71C | -3.84
C40U C101U | 0.317
G42A A50U C101U | -4.32
A41C C70A A118U | -2.8
G39U C49A C80U | -3.62
G39U G110C A121C | -4.8
C40G U92G | -2.95
C40G U92C | -1.63
C40G G122U | -0.991
C40U U55G U78G U92A G110C G122A C124G | -7.14
A41C C80U C115U | -3.59

Variant | polymerase ribozyme fitness (log ratio)
C40A C49U U59A G60A G117C | -7.16
C40U G47A | -2.33
C40G C64G C85A U112C | -6.02
C40G G47U G93U U129C U133G | -2.76
C40G A74G C86A | -1.94
A41U G45C C53G C79U C97U | -6.18
A41C C62U | -2.99
C40G C49G G61U U87G U129A | -2.49
A41U U78C A121G U131G | -0.28
C40A G60A G110C | -6.85
C40A C79A | -2.9
A41C G51C | -6.13
C40A A105G | -4.43
G42A | -1.69
G39U C49A C72A G93C A95C C115U | -5.1
G39U G128C | -3.25
C40A G48A C86A | -2.18
C40G C72U C102U U116G C124U | -4.29
C40G G45A A46C G51C G58A G63C G110A G113U G117C | -7.24
A41U C73G A90C C114U G128A | -5.13
C40A G60A G113U G122C | -4.23
A41G C79G C114A | -5.3
A41U C56U U78G | -1.47
C40A G93A A111C | -1.04

Variant | polymerase ribozyme fitness (log ratio)
C40U G52U | -1.14
C40U C97U U106A C115A | -1.86
C40G C70A | -3.86
C40U G42A C101G C114A | -5.28
A41U G63U | -2.33
A41C G113C | -2.86
A41G A111C | -0.47
A41U C53A C115A | -1.03
C40G G45U C88G U92A | -4.08
A41U C98U | -2.83
A41U G52A U59C A108G C114G U125G | -5.99
C40U A74G G77U C123U | 1.22
C40A A41U G69U G135C | -0.488
A41C C114G | -1.19
C40A G61U G93U A100C | -1.18
A41C G135U | -1.68
A41U G65U | -6
A41G A91U | -1.63
A41U G110U U125A | -4.14
C40U C64U C73G G122A | -5.15
C40G G60U | -0.737
C40G U116C | -2.34
G39U C56G C102U | -2.53
G42A A66U C79U | -3.79

Variant | polymerase ribozyme fitness (log ratio)
C40A G61C A118U U130G | -3.57
C40U U55C C72U U96C A100C A119U G127U | -4.37
A41U G57U | -1.23
C40G G61U C72G G117C | -4.91
C40U C104A A118U | -1.26
A41C G48A G60U | -1.76
G42A A43C | -2.41
C40G C49U A74U U78A | -3.07
C40U G71A U81C A95U | -3
A41C G42C G63U G127C | -4.81
A41C G42U G71A U81C | -4.72
C40U G51U C53U G61U G113U | -6.53
G39U C94U G113C A118C | -3.27
A41C C88U U92C C104U A111C U125G U132C | -4.35
A41C G77C C82U | -1.51
G39U U92C C101G | -5.46
C40A C102A G113U C124A | -6.46
G39U C70U A103C C114U A119U G120A U130A | -5.71
C40G A43C G69U G120C | -0.592
G39U G120A | -0.0767
G39U C56U C73U | -1.4
A41U C89U | -1.32
C40G C64U | -1.16
C40U C98A | -5

Variant | polymerase ribozyme fitness (log ratio)
C40A G135U | -2.63
G39U G77U C89U | -1.38
G42A A46U G48A G63A A118U | -3.82
C40A C89G C94A | -4.16
A41U G45C G60A C62U | -2.39
C40U A100G | -4.16
A41C G63C G77U A91G U96G A108G U112G | -6.24
C40A G42A C56G C72A A84C | -4.52
C40G C53U A121C | 1.26
A41C G117U C123A C124G | -3.97
A41C G42C U106A | -2.3
G39U A74G G110C A111G | -5.64
G39U C124A | 0.161
C40A G48A U55A G60A A95G G120C | -1.53
C40U G113A C114G | -2.13
G39U G51A A118G | -4.52
C40U G110C | -4.3
C40U G110A | -1.7
C40A A41C C49A C70U U92A C102G U109A | -6.25
A41C A46C C72G C97U U133A | -3.71
C40U C53G | 0.608
C40U C53A | 0.0513
C40A G61C U126G | -5.2
C40U C70A G128A | -4.95

Variant | polymerase ribozyme fitness (log ratio)
C40A C64U | -2.19
A41G G69C | -1.9
C40G G57C | -1.56
G42A A43U G52A C73U U133C | -1.65
A41U G45A U55C G71A | -3
C40G G57U A91C | -3.44
C40A U54C C82G A118U C123U | -0.573
G39U C62U | -1.71
C40U G63C C98U A100U C101U | -3.3
A41G A50C G77A U116C | -3.42
C40G G61C G69U | -2.88
G39U U106C | -0.461
C40G C56G C70A | -4.24
C40G G110U | -1.7
C40A G47A G63U | -4.41
A41C G44C | -1.48
G39U C88U A121G | 0.804
G39U G61C U130G | -2.15
A41U G61A | -1.07
A41U G63A C86G C101U | -4.01
C40G C88U G122A | -2.03
A41G A68G C82U | -5.28
G39U G113A | -1.25
